Data reported in patent publication US20180155451A1 (published 2018).
Where a chain is given by its changes, count along the chain named. Names may count otherwise.

T1: FcgRIIa R extracellular domain with C-terminal His tag (human, UniProt P12318 34-217)
T1 construct: extracellular domain; also called FcγRIIa R; FcγRIIa type R; not shown: His tag attached to the C terminus
T1 sequence (looked up): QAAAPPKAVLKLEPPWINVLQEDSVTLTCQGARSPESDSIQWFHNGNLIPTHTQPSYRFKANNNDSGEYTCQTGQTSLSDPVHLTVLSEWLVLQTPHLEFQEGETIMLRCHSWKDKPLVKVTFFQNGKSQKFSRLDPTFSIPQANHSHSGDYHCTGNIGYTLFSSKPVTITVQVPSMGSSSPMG

T2: FcgRIIa H extracellular domain with C-terminal His tag (human, UniProt P12318 34-217)
T2 construct: extracellular domain; also called FcγRIIa H; FcγRIIa type H; not shown: His tag attached to the C terminus
T2 sequence (looked up): T1 sequence (looked up) with R134H

T3: FcgRIIb extracellular domain with C-terminal His tag (human, UniProt P31994 43-217)
T3 construct: extracellular domain; also called FcγRIIb; not shown: His tag attached to the C terminus
T3 sequence (looked up): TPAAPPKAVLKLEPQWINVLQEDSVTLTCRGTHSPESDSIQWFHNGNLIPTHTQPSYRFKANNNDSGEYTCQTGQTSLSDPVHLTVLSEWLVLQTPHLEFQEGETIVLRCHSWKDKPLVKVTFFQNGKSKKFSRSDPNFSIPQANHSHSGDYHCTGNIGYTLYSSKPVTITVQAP

T4: FcgRIIa R (human, UniProt P12318 34-217)
T4 construct: extracellular domain; also called FcγRIIa R; FcγRIIa type R; not shown: His tag attached to the C terminus
T4 sequence (looked up): T1 sequence (looked up)

T5: FcgRIIa H (human, UniProt P12318 34-217)
T5 construct: extracellular domain; also called FcγRIIa H; FcγRIIa type H; not shown: His tag attached to the C terminus
T5 sequence (looked up): T1 sequence (looked up) with R134H

T6: FcgRIIb (human, UniProt P31994 43-217)
T6 construct: extracellular domain; Expressed in FreeStyle293 cells and purified; used as analyte in Biacore; also called FcγRIIb; CD32B; not shown: His tag attached to the C terminus
T6 sequence (looked up): T3 sequence (looked up)

B1: H240-Kn061/H240-Hl071/L73-k0 variant with F241M introduced into H240-Hl071 (antibody, human IgG1, kappa)
heavy 1: QDQLVQSGAEVKKPGASVKVSCKASGFNIKDTYIQWVRQAPGQGLEWMGRIDPLRKQTKYREKFEGRVTITADTSTNTAYMELSSLRSEDTAVYYCVRSGREFDYWGQGTLVTVSSASTKGPSVFPLAPSSKSTSGGTAALGCLVKDYFPEPVTVSWNSGALTSGVHTFPAVLQSSGLYSLSSVVTVPSSSLGTQTYICNVNHKPSNTKVDKKVEPKSCDKTHTCPPCPAPEYYWGPSVFLFPPKPKDTLMISRTPEVTCVVVDVSDEDPEVKFNWYVDGVEVHNAKTKPREEQYNATYRVVSVLTVLHQDWLNGKEYKCKVSNKALPAPIEKTISKAKGQPREPQVCTLPPSRDELTKNQVSLWCLVKGFYPSDIAVEWESNGQPENNYKTTPPVLDSDGSFFLYSKLTVDKSRWQQGNVFSCSVMHEALHNHYTQKSLSLSP
heavy 2: QDQLVQSGAEVKKPGASVKVSCKASGFNIKDTYIQWVRQAPGQGLEWMGRIDPLRKQTKYREKFEGRVTITADTSTNTAYMELSSLRSEDTAVYYCVRSGREFDYWGQGTLVTVSSASTKGPSVFPLAPSSKSTSGGTAALGCLVKDYFPEPVTVSWNSGALTSGVHTFPAVLQSSGLYSLSSVVTVPSSSLGTQTYICNVNHKPSNTKVDKKVEPKSCDKTHTCPPCPAPELLGGPSVMLFPPKPKDTLMISRTPEVTCVVVDVSHEDPEVKFNWYVDGVEVHNAKTKPREEQYNSTYRVVSVLTVLHQDWLNGKEYKCKVSNDALPMPIEETISKAKGQPREPQVYTLPPSRCELTKNQVSLSCAVKGFYPSDIAVEWESNGQPENNYKTTPPVLDSDGSFFLVSKLTVDKSRWQQGNVFSCSVMHEALHNHYTQKSLSLSP
light: DIQMTQSPSSLSASVGDRVTITCRASQDIHKYIAWYQQKPGQAPRLLIQYTSTLQPGVPSRFSGSGSGTDYTFTISSLQPEDIATYYCLQYEQLRTFGGGTKVEIKRTVAAPSVFIFPPSDEQLKSGTASVVCLLNNFYPREAKVQWKVDNALQSGNSQESVTEQDSKDSTYSLSSTLTLSKADYEKHKVYACEVTHQGLSSPVTKSFNRGEC
notes: Point variant made with H240-Kn061/H240-Hl071/L73-k0 as template; position by EU numbering; also called H240-Hl071 F241M
B2: H240-Kn061/H240-Hl071/L73-k0 variant with Y235N introduced into H240-Kn061 (antibody, human IgG1, kappa)
heavy 1: B1 heavy 1 with Y234N
heavy 2: B1 heavy 2 with M240F
light: B1 light
notes: Point variant made with H240-Kn061/H240-Hl071/L73-k0 as template; position by EU numbering; also called H240-Kn061 Y235N
B3: H240-Kn061/H240-Hl071/L73-k0 variant with L235F introduced into H240-Hl071 (antibody, human IgG1, kappa)
heavy 1: B1 heavy 1
heavy 2: B1 heavy 2 with L234F, M240F
light: B1 light
notes: Point variant made with H240-Kn061/H240-Hl071/L73-k0 as template; position by EU numbering; also called H240-Hl071 L235F
B4: H240-Kn061/H240-Hl071/L73-k0 variant with V240F introduced into H240-Hl071 (antibody, human IgG1, kappa)
heavy 1: B1 heavy 1
heavy 2: B1 heavy 2 with V239F, M240F
light: B1 light
notes: Point variant made with H240-Kn061/H240-Hl071/L73-k0 as template; position by EU numbering; also called H240-Hl071 V240F
B5: H240-Kn061/H240-Hl071/L73-k0 variant with Y234E introduced into H240-Kn061 (antibody, human IgG1, kappa)
heavy 1: B1 heavy 1 with Y233E
heavy 2: B1 heavy 2 with M240F
light: B1 light
notes: Point variant made with H240-Kn061/H240-Hl071/L73-k0 as template; position by EU numbering; also called H240-Kn061 Y234E
B6: H240-Kn061/H240-Hl071/L73-k0 variant with V240A introduced into H240-Hl071 (antibody, human IgG1, kappa)
heavy 1: B1 heavy 1
heavy 2: B1 heavy 2 with V239A, M240F
light: B1 light
notes: Point variant made with H240-Kn061/H240-Hl071/L73-k0 as template; position by EU numbering; also called H240-Hl071 V240A
B7: H240-Kn037/H240-Hl036/L73-k0 (antibody, human IgG1, kappa)
heavy 1: B1 heavy 1 with Y233L, Y234L, W235A, S238D, D267H, A297S, I331E
heavy 2: B1 heavy 2 with G235A, S238D, M240F, D325K, M329A, I331E, E333K
light: B1 light
notes: this is a derivation
B8: H240-Kn126/H240-Hl068/L73-k0 (antibody, human IgG1, kappa)
heavy 1: B1 heavy 1 with Y234Q, S238M, A326D
heavy 2: B1 heavy 2 with M240F, D269E, M329K
light: B1 light
notes: Heterodimerized anti-EREG IgG1: Kn126 is H240-Kn120 with Y235Q
B9: H240-Kn120/H240-Hl068/L73-k0 (antibody, human IgG1, kappa)
heavy 1: B1 heavy 1 with S238M, A326D
heavy 2: B1 heavy 2 with M240F, D269E, M329K
light: B1 light
notes: Heterodimerized anti-EREG IgG1: Kn120 is H240-Kn067 with S239M

These binders were tested against T1, FcgRIIa R extracellular domain with … (assay: SPR (Biacore) KD ratio against the template H240-Kn061/H240-Hl071/L73-k0).
Procedure: (§1) The antibodies were assessed for the binding to each FcgR. […] The resultant value was defined as relative KD, and used as an assessment indicator.
(§2) Analysis of interaction between obj ective antibody and the FcγR was carried out using Biacore T100 (GE Healthcare), Biacore T200, Biacore A100, and Biacore 4000. HBS-EP+ (GE Healthcare) was used as the running buffer, and the measurement temperature was set to 25° C. Chips produced by immobilizing the antigen peptide by the amine coupling method to a Series S sensor Chip CM5 (GE Healthcare), chips produced by allowing preliminarily biotinylated antigen peptides to interact with and immobilize onto a Series S Sensor Chip SA (certified) (GE Healthcare), chips produced by immobilizing Protein L (ACTIGEN, BioVision) to Series S Sencor Chip CM5 (GE Healthcare), or chips produced by immobilizing Protein A/G (Thermo Scientific) to Series S Sencor Chip CM5 (GE Healthcare) were used. Antibodies of interest were captured onto these chips, and allowed to interact to each FcγR diluted with running buffer.

relative KD (KD of H240-Kn061/H240-Hl071/L73-k0 / KD of variant)	Binder
1.3	B1
1	B2
1.2	B3
1.1	B4
1.4	B5
1	B6

What follows are binders tested against T2, FcgRIIa H extracellular domain with … in the same assay as above.
Procedure: as §1, §2

relative KD (KD of H240-Kn061/H240-Hl071/L73-k0 / KD of variant)	Binder
1.1	B1
0.7	B2
1.1	B3
0.9	B4
0.7	B5
1.2	B6

What follows are binders tested against T3, FcgRIIb extracellular domain with … in the same assay as above.
Procedure: as §1, §2

relative KD (KD of H240-Kn061/H240-Hl071/L73-k0 / KD of variant)	Binder
0.9	B1
0.7	B2
1	B3
0.9	B4
0.5	B5
1	B6

The binders below were run against T7, FcgRIIIa F extracellular domain with C-terminal His tag (human, UniProt P08637 17-208) in the same assay as above.
T7 construct: extracellular domain; also called FcγRIIIa F; FcγRIIIa (F158); not shown: His tag attached to the C terminus
Procedure: as §1, §2

T7 sequence (P08637 17-208): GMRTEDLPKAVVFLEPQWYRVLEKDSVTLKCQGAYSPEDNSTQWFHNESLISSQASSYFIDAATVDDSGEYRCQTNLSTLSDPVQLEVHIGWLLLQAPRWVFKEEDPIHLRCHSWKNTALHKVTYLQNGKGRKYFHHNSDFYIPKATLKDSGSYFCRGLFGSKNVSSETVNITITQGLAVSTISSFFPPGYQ

relative KD (KD of H240-Kn061/H240-Hl071/L73-k0 / KD of variant)	Binder
1.3	B1
1.3	B2
1.9	B3
1.4	B4
1.9	B5
1.3	B6

Each binder was assayed against T8, FcgRIIIa V extracellular domain with C-terminal His tag (human, UniProt P08637 17-208) in the same assay as above.
T8 construct: extracellular domain; also called FcγRIIIa V; FcγRIIIa (V158); not shown: His tag attached to the C terminus
Procedure: as §1, §2

T8 sequence (P08637 17-208 F176V): as the sequence (P08637 17-208) above, with F160V counted along it

relative KD (KD of H240-Kn061/H240-Hl071/L73-k0 / KD of variant)	Binder
1.3	B1
2	B2
1.6	B3
1	B4
1.6	B5
1.7	B6

The binders below were run against T9, FcgRIa (human, UniProt P12314 16-292) (assay: SPR (Biacore), antibody captured on chip, FcgR extracellular domain as analyte).
T9 construct: extracellular domain; Expressed in FreeStyle293 cells and purified; used as analyte in Biacore; also called FcγRIa; FcγRI; not shown: His tag attached to the C terminus
Procedure: (§3) Specifically, H240-Kn120 (SEQ ID NO: 99) resulting from introduction of S239M into H240-Kn067 and H240-Kn126 (SEQ ID NO: 100) resulting from introduction of Y235Q into H240-Kn120 were prepared according to the method described in Reference Example 1. […] Those described above were assayed for the binding to each FcgR according to the method described in Reference Example 8.
as §2, with “buffer. To regenerate and repeatedly use the chip, the antibodies captured onto the chip were washed off by reacting 10 mM glycine-HCl, pH 1.5.” for “buffer.”

T9 sequence (P12314 16-292): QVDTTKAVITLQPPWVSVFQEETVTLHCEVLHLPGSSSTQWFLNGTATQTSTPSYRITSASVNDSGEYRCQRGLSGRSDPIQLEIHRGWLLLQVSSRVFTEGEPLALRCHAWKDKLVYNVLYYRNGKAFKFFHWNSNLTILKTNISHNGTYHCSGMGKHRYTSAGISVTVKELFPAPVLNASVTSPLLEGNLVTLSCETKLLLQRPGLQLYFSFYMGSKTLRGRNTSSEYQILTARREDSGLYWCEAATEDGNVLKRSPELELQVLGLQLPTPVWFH

Kd [nM]	Binder
0.098	B7
0.4	B8
0.37	B9

Each binder was assayed against T4, FcgRIIa R in the same assay as above.
Procedure: as §3
as §2, with “buffer. To regenerate and repeatedly use the chip, the antibodies captured onto the chip were washed off by reacting 10 mM glycine-HCl, pH 1.5.” for “buffer.”

Kd [nM]	Binder
29	B7
76	B8
17	B9

The binders below were run against T5, FcgRIIa H in the same assay as above.
Procedure: as §3
as §2, with “buffer. To regenerate and repeatedly use the chip, the antibodies captured onto the chip were washed off by reacting 10 mM glycine-HCl, pH 1.5.” for “buffer.”

Kd [nM]	Binder
46	B7
170	B8
59	B9

What follows are binders tested against T6, FcgRIIb in the same assay as above.
Procedure: as §3
as §2, with “buffer. To regenerate and repeatedly use the chip, the antibodies captured onto the chip were washed off by reacting 10 mM glycine-HCl, pH 1.5.” for “buffer.”

Kd [nM]	Binder
380	B7
520	B8
150	B9

What follows are binders tested against T10, FcgRIIIa F (human, UniProt P08637 17-208) in the same assay as above.
T10 construct: extracellular domain; also called FcγRIIIa F; not shown: His tag attached to the C terminus
Procedure: as §3
as §2, with “buffer. To regenerate and repeatedly use the chip, the antibodies captured onto the chip were washed off by reacting 10 mM glycine-HCl, pH 1.5.” for “buffer.”

T10 sequence (P08637 17-208): as the sequence (P08637 17-208) above

Kd [nM]	Binder
21	B7
3.7	B8
2.4	B9

What follows are binders tested against T11, FcgRIIIa V (human, UniProt P08637 17-208) in the same assay as above.
T11 construct: extracellular domain; also called FcγRIIIa V; not shown: His tag attached to the C terminus
Procedure: as §3
as §2, with “buffer. To regenerate and repeatedly use the chip, the antibodies captured onto the chip were washed off by reacting 10 mM glycine-HCl, pH 1.5.” for “buffer.”

T11 sequence (P08637 17-208 F176V limits assumed): as the sequence (P08637 17-208) above, with F160V counted along it

Kd [nM]	Binder
6.8	B7
0.64	B8
0.66	B9
